Data: paper PMC7566476, “MYB61 is regulated by GRF4 and promotes nitrogen utilization and biomass production in rice”

T1: GST-GRF4 (UniProt Q6ZIK5)
T1 sequence: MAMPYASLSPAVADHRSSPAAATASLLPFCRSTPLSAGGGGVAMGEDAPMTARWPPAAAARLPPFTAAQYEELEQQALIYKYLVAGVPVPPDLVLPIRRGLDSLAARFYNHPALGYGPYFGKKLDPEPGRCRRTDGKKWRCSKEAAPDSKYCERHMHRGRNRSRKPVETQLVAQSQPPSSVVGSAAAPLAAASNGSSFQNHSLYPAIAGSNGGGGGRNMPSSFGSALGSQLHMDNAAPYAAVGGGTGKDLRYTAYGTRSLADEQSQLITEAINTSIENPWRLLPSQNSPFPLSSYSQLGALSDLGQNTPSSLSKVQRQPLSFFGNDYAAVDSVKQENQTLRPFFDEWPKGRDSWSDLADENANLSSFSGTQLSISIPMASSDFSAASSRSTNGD

T2: GST-GRF4 (UniProt Q6ZIK5 1-394)
T2 sequence: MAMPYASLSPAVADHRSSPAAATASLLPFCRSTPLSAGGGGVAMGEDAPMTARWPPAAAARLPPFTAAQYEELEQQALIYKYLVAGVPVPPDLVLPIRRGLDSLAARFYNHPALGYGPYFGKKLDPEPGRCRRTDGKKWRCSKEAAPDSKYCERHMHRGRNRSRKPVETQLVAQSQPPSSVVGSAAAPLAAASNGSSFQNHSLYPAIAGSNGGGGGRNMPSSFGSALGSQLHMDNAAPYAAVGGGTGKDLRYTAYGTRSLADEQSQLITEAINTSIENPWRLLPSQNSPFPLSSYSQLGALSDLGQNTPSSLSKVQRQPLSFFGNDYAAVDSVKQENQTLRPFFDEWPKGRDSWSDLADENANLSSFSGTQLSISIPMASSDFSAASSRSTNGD

B1: MYB61 promoter motif 2 probe (within P8) (dsDNA)
DNA 1: CAAAAAGGCTGCGGTAATTAAGTCACAGTA
DNA 2: TACTGTGACTTAATTACCGCAGCCTTTTTG

Experiments:
GST-GRF4 [1] = target: T1, GST-GRF4; assay: EMSA; conditions: EMSA binding buffer (Beyotime; composition, salt and pH not given), 4 °C; unlabeled competitor 50-, 100- and 500-fold
GST-GRF4 [2] = target: T2, GST-GRF4; assay: EMSA; EMSA binding buffer (Beyotime; composition, salt and pH not given), 4 °C; unlabeled competitor 50-, 100- and 500-fold; conditions: protein: recombinant; tags: N-terminal GST (pGEX-6P-1); label: biotin; blunt

Molecule | binding (GST-GRF4 [1]) | binding result (GST-GRF4 [2])
AATCTGTGCTCCAATCCAAGAAGATCATCTCTGGCACCTCTCAAGATGCTAAGCAATCAGCTGTGAGAACCAGGCCTATGCTGATGATTGCTTTTGCAGAGTTACAAACAGCATGATTTCCTCACTGGCCGTATTCTCGCTCAGAAGCAAATCCCAAT (double strand) [MYB61 promoter P1 fragment] | no binding | –
B1 | – | binds
